Legend:
[1] = tested on: PC-3 tumor; conditions: mouse, in vivo; cited from earlier work
From the text: Several classes of BBN antagonists have been designed by modifying the C-terminal residues of naturally amidated BBN agonists. […] Additionally, ^68Ga-, ^111In-, and ^18F-AlF-labeled NOTA-PEG2-RM26 (where RM26 = D-Phe-Gln-Trp-Ala-Val-Gly-His-Sta-L ...

[2] = tested on: GRPR; set-up: method as in PMID 23763444, PMID 24312607; conditions: cell binding and internalization; cited from earlier work
[3] = Stability of high-radioconcentration samples in acetate buffer without and with stabilizers; format: physicochemical; conditions: 2–8 °C; for half-life of degradation (t1/2): 0.1 M acetate buffer pH 5, high radioconcentration (0.74 GBq/mL), RP-HPLC, first-order fit, average (SD) n = 3
Method: The ^177Lu-labeled RM1 samples in acetate buffer, with 0.74 GBq/mL radio concentration, 10,175–12,765 GBq/mmol molar activity, and >99% RCP, were prepared for high-radioconcentration sample stability studies. […] Degradation of the high-radioconcentration sample in acetate buffer was at least 20 times faster than the degradation of the low-radioconcentration samples of ^177Lu-labeled RM1.
All mass spectral analyses were performed at the Campus Chemical Instrument Center of the Ohio State University (Columbus, OH, USA) using a Bruker UltrafleXtreme MALDI-TOF MS system. An RP-HPLC method, involving a gradient mobile phase system of 50 mM Tris acetate, 10 mM EDTA at pH 7.2 (solvent A), and acetonitrile (solvent B) with 1 mL/min flow rate, was used to monitor the extent of the reaction of ^177Lu/Lu with AMBA and RM1; for the purity analysis of RM1, AMBA, Lu-RM1, Lu-AMBA, and of the final ^177Lu-labeled samples; and for monitoring the degradation of ^177Lu-labeled RM1 or AMBA samples in acetate buffer, mouse, canine, and human sera. The EDTA was incorporated to detect any unreacted ^177Lu/Lu in the samples. The gradient program used was 0% B at the beginning, raising the percentage of B to 50% in 15 min, holding B at 50% for 4 min, followed by decreasing the percentage of B to 0% in 5 min and continuing 0% for an additional 9 min. The total run time was […].
All samples of ^177Lu-labeled RM1 were prepared in 0.1 M acetate buffer, pH 5–5.5. The ^177Lu-labeled RM1 samples, with a low radioconcentration, were stored at room temperature and at 2–8 °C storage conditions for 6 d for stability studies. The samples with a high radioconcentration, without and with a stabilizer (gentisic acid or ascorbic acid), were stored 2–8 °C for 2 and 7 d, respectively. For the effect of stabilizer (ascorbic acid or gentisic acid) on the stability of the high-radioconcentration samples of ^177Lu-labeled RM1, the samples were mixed with 500 µg of ascorbic or gentisic acid post radiolabeling. The stability or degradation of the samples was monitored by a reduction in the percent HPLC peak area of ^177Lu-labeled RM1 with time.
Degradation of ^177Lu-labeled RM1 or AMBA was monitored by a reduction in percent HPLC peak area with time. Half-lives of in vitro acetate buffer and serum degradation for each imaging pharmaceutical were calculated by fitting the percent peak remaining versus time to a first-order kinetics model (Equations (2) and (3)) using Excel or Graph Pad Prism version 5.03 software (Graph Pad Software, Inc., La Jolla, CA, USA). Pt = P0 exp (−k × t);(2) t1/2 = 0.693/k;(3) where Pt is the percent peak area at time t, Po is the percent peak area initially, t is the time elapsed, k is the first-order rate constant, and t1/2 is the half-life of degradation reaction. All degradation kinetics experiments were conducted in triplicate, and average (n = 3) values (standard deviation given in the parenthesis) of half-life are reported.

[4] = In vitro human serum stability; format: in vitro ADME; conditions: 50 µL labeled peptide + 450 µL human serum, 37 °C, RP-HPLC, read-out: degradation in human serum
Method: (§1) For mouse, canine, and human sera stability studies, 50 µL of ^177Lu-labeled RM1 or AMBA was mixed with 450 µL of mouse or canine or human serum. The mixtures were incubated at 37 °C for 24 h, samples were processed at each time point, and analyzed by an RP-HPLC method.
(§2) All mass spectral analyses were performed at the Campus Chemical Instrument Center of the Ohio State University (Columbus, OH, USA) using a Bruker UltrafleXtreme MALDI-TOF MS system. […]
(§3) A literature procedure was followed for the serum stability studies of ^177Lu-labeled RM1 and AMBA [37, 43]. […] Several mixtures, containing 50 µL of ^177Lu-labeled RM1 or AMBA (usually 1.48 to 2.22 MBq radioactivity) and 450 µL of the mouse or human or canine serum, were prepared in HPLC vials and incubated at 37 °C in the block heater. […] The sample was then centrifuged at 6000 rpm for 15 min, and 200 µL of the supernatant solution was isolated and analyzed by an RP- HPLC method given above. A control experiment was conducted where samples of ^177Lu-labeled AMBA and RM1 were incubated in the water at 37 °C and analyzed by the RP-HPLC method.
(§4) Degradation of ^177Lu-labeled RM1 or AMBA was monitored by a reduction in percent HPLC peak area with time. […]

[5] = format: in vitro ADME, mouse
Method: as §1, §2, §3, §4

[6] = Stability of low-radioconcentration samples in acetate buffer; format: physicochemical; conditions: pH 5
Method: The final pH of the ^177Lu-labeled RM1 and AMBA, post radiolabeling, was usually ~5 to 5.5, and the acetate buffer concentration was 0.1 M. Consequently, the degradation kinetics of ^177Lu-labeled RM1 and AMBA were evaluated in this environment after storage at room temperature (25 °C) and 2–8 °C for 5 d. Both samples were analyzed using an RP-HPLC method at various time points.
as §2
All samples of ^177Lu-labeled RM1 were prepared in 0.1 M acetate buffer, pH 5–5.5. […] The stability or degradation of the samples was monitored by a reduction in the percent HPLC peak area of ^177Lu-labeled RM1 with time.
Degradation of ^177Lu-labeled RM1 or AMBA was monitored by a reduction in percent HPLC peak area with time. Half-lives of in vitro acetate buffer and serum degradation for each imaging pharmaceutical were calculated by fitting the percent peak remaining versus time to a first-order kinetics model (Equations (2) and (3)) using Excel or Graph Pad Prism version 5.03 software (Graph Pad Software, Inc., La Jolla, CA, USA). […]

[7] = tested on: gastrin-releasing peptide (GRP) receptors in a PC-3 cell line; set-up: method as in PMID 16818949, PMID 16909223; conditions: GRP receptors in PC-3 cell line; cited from earlier work
Method: The first proof-of-concept GRPR targeting study was conducted using a ^99mTc-labeled BBN (7–14) conjugate (RP527) for breast and prostate cancer imaging. […] Despite the general consensus rel ...

[8] = format: physicochemical; conditions: pH 7.2
Method: A dose calibrator (Capintec, Florham Park, NJ, USA) and a Wizard 2480 gamma counter (Perkin Elmer, Waltham, MA, USA) were used for radioactivity measurements in the samples. A model 1100 Agilent HPLC system (Agilent, Wilmington, DE, USA) was used for the analysis of ^177Lu-labeled RM1 and AMBA and stability samples. The system consisted of a quaternary pump, degasser, column compartment capable of controlling the temperature at ambient or at 37 °C, auto-injector, a multiwavelength detector, and a Flow Ram radioisotope detector (Lab Logic, Sheffield, UK). The system was controlled by Laura software from Lab Logic. […] Zorbax Bonus RP C18 column (4.6 × 250 mm, 5 µm) was used for the analysis of ^177Lu-labeled AMBA and RM1 samples and for the separation of the ^177Lu-labeled AMBA and RM1 from their in vitro metabolic degradants in mouse, human, and canine sera stability samples.
as §2

[9] = log D by shake-flask method; format: physicochemical
Method: The log D values were determined by a traditional shake-flask method. In a typical experiment, 10 μL sample of ^177Lu-labeled AMBA or RM1 with 0.037–0.052 GBq/mL radioconcentration and 814 GBq/mmol molar activity were added to a 4 mL mixture of 50:50 octanol:water. The mixture was shaken for one minute and mixed well. The sample was stored at room temperature for 5 min for separation of the two layers. Sample from each layer (25 μL) was added to a counting tube containing 250 μL water. The samples were mixed and counted. Triplicate measurements were made. The log D values were calculated using Equation (1): D = Counts in organic phase/Counts in the aqueous phase.(1)

NOTA-PEG2-RM26 (where RM26 = D-Phe-Gln-Trp-Ala-Val-Gly-His-Sta-Leu-NH2) [^68Ga-labeled NOTA-PEG2-RM26, 68Ga-labeled NOTA-PEG2 conjugate of the GRPR antagonist peptide RM26]
specific tumor uptake [1]: 8.1 ± 0.4 %ID/g
IC50 [2]: 0.91 ± 0.19 nM

CC(C)C[C@H](NC(=O)C[C@H](O)[C@H](CC(C)C)NC(=O)[C@H](Cc1c[nH]cn1)NC(=O)CNC(=O)[C@@H](NC(=O)[C@H](C)NC(=O)[C@H](Cc1c[nH]c2ccccc12)NC(=O)[C@H](CCC(N)=O)NC(=O)[C@@H](Cc1ccccc1)NC(=O)c1ccc(NC(=O)CNC(=O)CN2CCN(CC(=O)O)CCN(CC(=O)O)CCN(CC(=O)O)CC2)cc1)C(C)C)C(N)=O [^177Lu-labeled RM1, metal not drawn]
half-life of degradation (t1/2) ([3]; 500 µg ascorbic acid): 39.2 (0.6) h
half-life of degradation (t1/2) ([3]; 500 µg gentisic acid): 142.5 (1.4) h
half-life of degradation (t1/2) ([3]; no stabilizer): 8.5 (0.2) h
degradation of high- versus low-radioconcentration samples, times faster ([3]; acetate buffer): at least 20 times
improvement of stability versus no stabilizer ([3]; high radioconcentration, 500 µg gentisic acid): ~17 fold
factor by which degradation is reduced versus control without stabilizer ([3]; high radioconcentration, ascorbic acid): ≥ 5
metabolised at 24 h [4]: < 10%
degradation after 1440 min incubation [5]: complete degradation
degraded in acetate buffer within the same time period as the mouse serum study [6]: 10-12%

NOTA-PEG2-RM26 (where RM26 = D-Phe-Gln-Trp-Ala-Val-Gly-His-Sta-Leu-NH2) [^111In-labeled NOTA-PEG2-RM26, 111In-labeled NOTA-PEG2 conjugate of the GRPR antagonist peptide RM26]
specific tumor uptake [1]: 5.7 ± 0.3 %ID/g
IC50 [2]: 1.24 ± 0.29 nM

DO3A-CH2CO-G-[4-aminobenzyl]- Gln-Trp-Ala-Val-Gly-His-Leu-Met-NH2 [AMBA, GRPR agonist, BBN-like peptide chelator conjugate, gift from Bracco Diagnostics]
IC50 [7]: 4.75 ± 0.25 nM

CC(C)C[C@H](NC(=O)C[C@H](O)[C@H](CC(C)C)NC(=O)[C@H](Cc1c[nH]cn1)NC(=O)CNC(=O)[C@@H](NC(=O)[C@H](C)NC(=O)[C@H](Cc1c[nH]c2ccccc12)NC(=O)[C@H](CCC(N)=O)NC(=O)[C@@H](Cc1ccccc1)NC(=O)c1ccc(NC(=O)CNC(=O)CN2CCN(CC(=O)O)CCN(CC(=O)O)CCN(CC(=O)O)CC2)cc1)C(C)C)C(N)=O [Lu-RM1]
relative lipophilicity from retention times [8]: slightly more lipophilic than Lu-AMBA
log D [9]: −2.46 (0.07)

Source: PMC6720803, “Stability Evaluation and Stabilization of a Gastrin-Releasing Peptide Receptor (GRPR) Targeting Imaging Pharmaceutical” (Molecules, 2019)
